Assays:
[1] = target: 23 amino acid synthetic M2e peptide of A/Fort Worth/1/50 (influenza A virus A/Fort Worth/1/50 (H1N1)); assay: ELISA on the 23mer M2e peptide (FIG. 14b)
[2] = target: M2 protein of influenza A/Wisconsin/67/05 (H3N2), on inactivated whole virions (Influenza A virus A/Wisconsin/67/2005 (H3N2)); assay: ELISA, positive control antibody on inactivated whole virions

Chain of TCN-032 (8I10) (antibody) (VH): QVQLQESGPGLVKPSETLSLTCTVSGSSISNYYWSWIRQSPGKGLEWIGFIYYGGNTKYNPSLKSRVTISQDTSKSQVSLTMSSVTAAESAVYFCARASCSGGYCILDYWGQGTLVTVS
Chain of TCN-032 (8I10) (antibody) (VL): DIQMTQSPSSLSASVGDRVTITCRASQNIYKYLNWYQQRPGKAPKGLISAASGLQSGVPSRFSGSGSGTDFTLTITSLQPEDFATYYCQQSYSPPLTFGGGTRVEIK

chimeric mouse V-region/human IgG1 kappa 14C2 antibody
EC50 [1]: 0.01 µg/mL

TCN-032 (8I10) (antibody)
OD450 [2]: 3.62 OD450

Reference: US20120207760A1
